{"source": "the supplement of paper PMC10567573", "parents": {"B1": {"name": "KCNA4 (parent)", "chain": "YQLGEEALLKFREDEGFVREEEDR"}, "B2": {"name": "SLC35F2 (parent)", "chain": "FVAFALCMFCLYSFMPLVIKVTSA"}}}
{"variants_of": "B1", "assay": "protein stability index of a GFP-peptide fusion (GPS, HEK-293T) (PSI 1-6); higher = more stable", "conditions": "c terminus: a fixed tail appended"}
{"variant": "V18W", "protein stability index": 3.94}
{"variant": "V18T", "protein stability index": 4.54}
{"variant": "V18S", "protein stability index": 4.32}
{"variant": "V18A", "protein stability index": 4.16}
{"variant": "L8F", "protein stability index": 4.43}
{"variant": "L8C", "protein stability index": 4.98}
{"variant": "L8M", "protein stability index": 4.56}
{"variant": "D14P", "protein stability index": 3.16}
{"variant": "E20I", "protein stability index": 3.4}
{"variant": "E20A", "protein stability index": 3.63}
{"variant": "E22T", "protein stability index": 4.11}
{"variant": "R19P", "protein stability index": 4.62}
{"variant": "R19A", "protein stability index": 4.91}
{"variant": "R19G", "protein stability index": 4.85}
{"variant": "R19S", "protein stability index": 4.22}
{"variant": "R19N", "protein stability index": 4.47}
{"variant": "E5M", "protein stability index": 3.37}
{"variant": "Q2N", "protein stability index": 5.23}
{"variant": "Q2E", "protein stability index": 5.37}
{"variant": "Q2C", "protein stability index": 4.91}
{"variant": "Q2Y", "protein stability index": 4.31}
{"variant": "Q2T", "protein stability index": 5.31}
{"variant": "Q2K", "protein stability index": 5.7}
{"variant": "E15S", "protein stability index": 4.09}
{"variant": "R12E", "protein stability index": 5.21}
{"variant": "R12T", "protein stability index": 3.98}
{"variant": "R12I", "protein stability index": 4.15}
{"variant": "R12C", "protein stability index": 3.02}
{"variant": "R12P", "protein stability index": 5.62}
{"variant": "G16M", "protein stability index": 4.48}
{"variant": "G16E", "protein stability index": 4.84}
{"variant": "G16T", "protein stability index": 4.58}
{"variant": "G16C", "protein stability index": 4.83}
{"variant": "G16V", "protein stability index": 4.5}
{"variant": "G4S", "protein stability index": 3.81}
{"variant": "G4W", "protein stability index": 4.4}
{"variant": "G4L", "protein stability index": 4.41}
{"variant": "F11W", "protein stability index": 4.21}
{"variant": "F11L", "protein stability index": 5.38}
{"variant": "L3S", "protein stability index": 4.86}
{"variant": "L3K", "protein stability index": 5.02}
{"variant": "L3F", "protein stability index": 4.7}
{"variant": "L3P", "protein stability index": 5.28}
{"variant": "F17R", "protein stability index": 4.13}
{"variant": "F17H", "protein stability index": 4.71}
{"variant": "F17S", "protein stability index": 4.56}
{"variant": "F17V", "protein stability index": 4.53}
{"variant": "F17M", "protein stability index": 3.69}
{"variant": "R24Q", "protein stability index": 4.71}
{"variant": "R24I", "protein stability index": 4.6}
{"variant": "R24F", "protein stability index": 4.27}
{"variant": "R24P", "protein stability index": 5.16}
{"variant": "R24M", "protein stability index": 4.88}
{"variant": "Y1D", "protein stability index": 5.79}
{"variant": "Y1K", "protein stability index": 5.6}
{"variant": "Y1I", "protein stability index": 5.3}
{"variant": "Y1S", "protein stability index": 5.53}
{"variant": "E21C", "protein stability index": 3.71}
{"variant": "E21G", "protein stability index": 4.43}
{"variant": "E21D", "protein stability index": 4.4}
{"variant": "E6N", "protein stability index": 4.43}
{"variant": "E6P", "protein stability index": 4.92}
{"variant": "E6S", "protein stability index": 4.67}
{"variant": "E6W", "protein stability index": 1.97}
{"variant": "D23S", "protein stability index": 4.62}
{"variant": "D23C", "protein stability index": 4.48}
{"variant": "D23Y", "protein stability index": 4.46}
{"variant": "D23M", "protein stability index": 3.76}
{"variant": "D23A", "protein stability index": 4.28}
{"variant": "D23F", "protein stability index": 4.14}
{"variant": "L9P", "protein stability index": 5.09}
{"variant": "L9D", "protein stability index": 5.87}
{"variant": "L9H", "protein stability index": 4.96}
{"variant": "L9I", "protein stability index": 5}
{"variant": "L9C", "protein stability index": 4.92}
{"variant": "L9E", "protein stability index": 5.37}
{"variant": "L9V", "protein stability index": 5.15}
{"variant": "A7P", "protein stability index": 4.59}
{"variant": "A7I", "protein stability index": 3.99}
{"variant": "E13V", "protein stability index": 3.81}
{"variant": "E13L", "protein stability index": 4.45}
{"variant": "E13Q", "protein stability index": 4.3}
{"variant": "E13D", "protein stability index": 4.11}
{"variant": "E13I", "protein stability index": 3.32}
{"variant": "E13R", "protein stability index": 4.54}
{"variant": "K10V", "protein stability index": 2.88}
{"variant": "K10T", "protein stability index": 4.57}
{"variants_of": "B2", "assay": "protein stability index of a GFP-peptide fusion (GPS, HEK-293T) (PSI 1-6); higher = more stable", "conditions": "c terminus: a fixed tail appended"}
{"variant": "L11V", "protein stability index": 3}
{"variant": "L11D", "protein stability index": 3.52}
{"variant": "L11A", "protein stability index": 3.07}
{"variant": "L11T", "protein stability index": 2.43}
{"variant": "L11H", "protein stability index": 2.99}
{"variant": "L11G", "protein stability index": 2.39}
{"variant": "L11S", "protein stability index": 4.04}
{"variant": "L11C", "protein stability index": 3.54}
{"variant": "L11R", "protein stability index": 2.85}
{"variant": "L11K", "protein stability index": 3.17}
{"variant": "L11I", "protein stability index": 3.19}
{"variant": "L11E", "protein stability index": 4.11}
{"variant": "L11W", "protein stability index": 2.44}
{"variant": "L11P", "protein stability index": 1.84}
{"variant": "L11Y", "protein stability index": 2.67}
{"variant": "L11F", "protein stability index": 2.21}
{"variant": "L11Q", "protein stability index": 3.66}
{"variant": "L11N", "protein stability index": 3.45}
{"variant": "S13H", "protein stability index": 3.26}
{"variant": "S13E", "protein stability index": 3.17}
{"variant": "S13V", "protein stability index": 3.39}
{"variant": "S13C", "protein stability index": 2.62}
{"variant": "S13F", "protein stability index": 2.8}
{"variant": "S13W", "protein stability index": 2.54}
{"variant": "S13I", "protein stability index": 3.95}
{"variant": "S13M", "protein stability index": 2.54}
{"variant": "S13G", "protein stability index": 3.42}
{"variant": "S13T", "protein stability index": 2.97}
{"variant": "S13A", "protein stability index": 2.08}
{"variant": "S13P", "protein stability index": 2.15}
{"variant": "S13K", "protein stability index": 3.34}
{"variant": "S13R", "protein stability index": 3.03}
{"variant": "S13L", "protein stability index": 3.22}
{"variant": "S13Q", "protein stability index": 2.36}
{"variant": "S13N", "protein stability index": 3.33}
{"variant": "S13Y", "protein stability index": 2.33}
{"variant": "S13D", "protein stability index": 4.24}
{"variant": "C10Y", "protein stability index": 2.28}
{"variant": "C10W", "protein stability index": 2.35}
{"variant": "K20S", "protein stability index": 2.55}
{"variant": "K20N", "protein stability index": 3.16}
{"variant": "K20V", "protein stability index": 2.56}
{"variant": "K20T", "protein stability index": 3.12}
{"variant": "K20D", "protein stability index": 2.22}
{"variant": "K20M", "protein stability index": 2.62}
{"variant": "K20R", "protein stability index": 3.56}
{"variant": "K20L", "protein stability index": 3.04}
{"variant": "K20F", "protein stability index": 2.03}
{"variant": "K20A", "protein stability index": 2.95}
{"variant": "K20Q", "protein stability index": 3.38}
{"variant": "K20E", "protein stability index": 2.71}
{"variant": "K20G", "protein stability index": 2.9}
{"variant": "K20P", "protein stability index": 2.56}
{"variant": "K20H", "protein stability index": 1.78}
{"variant": "K20C", "protein stability index": 3.38}
{"variant": "K20I", "protein stability index": 2.63}
{"variant": "K20Y", "protein stability index": 2.76}
{"variant": "V18C", "protein stability index": 3.04}
{"variant": "V18I", "protein stability index": 2.35}
{"variant": "V18Y", "protein stability index": 2.54}
{"variant": "V18P", "protein stability index": 3.36}
{"variant": "V18R", "protein stability index": 3.05}
{"variant": "V18K", "protein stability index": 2.63}
{"variant": "V18E", "protein stability index": 2.87}
{"variant": "V18S", "protein stability index": 2.91}
{"variant": "V18D", "protein stability index": 3.27}
{"variant": "V18T", "protein stability index": 2.57}
{"variant": "V18F", "protein stability index": 2.85}
{"variant": "V18H", "protein stability index": 2.9}
{"variant": "V18Q", "protein stability index": 4.26}
{"variant": "V18L", "protein stability index": 2.65}
{"variant": "V18N", "protein stability index": 3.17}
{"variant": "V18W", "protein stability index": 2.6}
{"variant": "V18G", "protein stability index": 3.68}
{"variant": "V18A", "protein stability index": 2.91}
{"variant": "V18M", "protein stability index": 2.51}
{"variant": "V21S", "protein stability index": 3.11}
{"variant": "V21C", "protein stability index": 1.7}
{"variant": "V21R", "protein stability index": 2.38}
{"variant": "V21F", "protein stability index": 2.01}
